{"source": "patent US20030092616A1", "about": "“STAT6 activation gene” (priority 2001, published 2003)", "molecules": {"B1": {"name": "261 (nucleic acid, listed as Homo sapiens)", "chain": "AGTGCGCGAAGATGCGAAAGGTGGTTTTGATCACCGGGGCTAGCAGTGGCATTGGCCTGGCCCTCTGCAAGCGGCTGCTGGCGGAAGATGATGAGCTTCATCTGTGTTTGGCGTGCAGGAACATGAGCAAGGCAGAAGCTGTCTGTGCTGCTCTGCTGGCCTCTCACCCCACTGCTGAGGTCACCATTGTCCAGGTGGATGTCAGCAACCTGCAGTCGGTCTTCCGGGCCTCCAAGGAACTTAAGCAAAGGTTTCAGAGATTAGACTGTATATATCTAAATGCTGGGATCATGCCTAATCCACAACTAAATATCAAAGCACTTTTCTTTGGCCTCTTTTCAAGAAAAGTGATTCATATGTTCTCCACAGCTGAAGGCCTGCTGACCCAGGGTGATAAGATCACTGCTGATGGACTTCAGGAGGTGTTTGAGACCAATGTCTTTGGCCATTTTATCCTGATTCGGGAACTGGAGCCTCTCCTCTGTCACAGTGACAATCCATCTCAGCTCATCTGGACATCATCTCGCAGTGCAAGGAAATCTAATTTCAGCCTCGAGGACTTCCAGCACAGCAAAGGCAAGGAACCCTACAGCTCTTCCAAATATGCCACTGACCTTTTGAGTGTGGCTTTGAACAGGAACTTCAACCAGCAGGGTCTCTATTCCAATGTGGCCTGTCCAGGTACAGCATTGACCAATTTGACATATGGAATTCTGCCTCCGTTTATATGGACGCTGTTGATGCCGGCAATATTGCTACTTCGCTTTTTTGCAAATGCATTCACTTTGACACCATATAATGGAACAGAAGCTCTGGTATGGCTTTTCCACCAAAAGCCTGAATCTCTCAATCCTCTGATCAAATATCTGAGTGCCACCACTGGCTTTGGAAGAAATTATATTATGACCCAGAAGATGGACCTAGATGAAGACACTGCTGAAAAATTTTATCAAAAGTTACTGGAACTGGAAAAGCACATTAGGGTCACTATTCAAAAAACAGATAATCAGGCCAGGCTCAGTGGCTCATGCCTATAATTCCAGCACTTTGGGAGGCCAAGGCAGAAGGATCACTTGAGACCAGGAGTTCAAGACCAGCCTGAGAAACATAGTGAGCCCTTGTCTCTACAAAAAGAAATAAAAATAATAGCTGGGTGTGGTGGCATGCGCATGTAGTCCCAGCTACTCAGAAGGATGAGGTGGGAGGATCTCTTGAGGCTGGGAGGCAGAGGTTGCAGTGAGCTGAGATTGTGCCACTGCACTCCAGCCTGGGTGACAGCGAGACCCTGTCTCAAAATATGTATATATTTAATATATATATAAAACCAGAGCTGACAATGACACTCTGGAACATTGCATACCTTCTGTACATTCTGGGGTACATGGATTTCTACTGAGTTGGATAATATGCATTTGTAATAAACTATGAACTATG", "modifications": "CDS (12)..(1034)"}}, "system": "STAT6", "experiment": "Screening of full-length cDNA clones for promotion of STAT6 activation (luciferase reporter N4×8-luc)", "format": "cell-based", "details": "NIH3T3 cells cotransfected with N4×8-luc reporter and cDNA plasmid; 48 h culture, then mouse IL-4 0.5 ng/ml for 6 h", "procedure": "As a preferable method, NIH3T3 cells are inoculated on 10% FBS (Fetal Bovine Serum)-containing IMDM medium in a 96-well cell culture plate to a final cell density of 1×10^4 cells/well, and cultured for 24 hours at 37° C., in the presence of 5% CO2. Then, the luciferase reporter plasmid N4×8-luc which has a STAT6 response sequence, and the expression vector are cotransfected into the cells in a well using FuGENE 6 (Roche). After 48 hours of culture at 37° C., in the presence of 5% CO2 mouse IL-4 (Immuno Biological Laboratories Co., Ltd.) is added to a final concentration of 0.5 ng/ml. After culturing for further 6 hours, promoting activity for STAT6 activation is then measured by measuring luciferase activity using a long term luciferase assay system, Picagene LT2.0 (Toyo Ink Mfg). For example, luciferase activity can be measured using PerkinElmer's Wallac ARVOTMST 1420 MULTILABEL COUNTER. The method for gene introduction by FuGENE6, and measurement of luciferase activity by Picagene LT2.0 can be performed respectively according to the attached protocols. In a method of gene introduction with a 96-well plate using FuGENE6, the amount of FuGENE6 per 1 well is suitably 0.3 to 0.5 μl, preferably 0.3 μl; the amount of N4×8-luc reporter plasmid is suitably 50 to 100 ng, preferably 100 ng; and the amount of expression vector is suitably 50 to 100 ng, preferably 100 ng. An ability (action) to promote STAT6 activation refers to an ability to increase the reporter activity (luciferase activity) relative to the control experiment (for cells into which the reporter gene and a null vector were introduced). Increase in reporter activity is preferably by a factor of 1.5 or more, more preferably by a factor of 3 or more, and still more preferably by a factor of 6 or more.\nNIH3T3 cells (purchased from Dainippon Pharmaceutical) were grown to 1×10^4 cells/well in a 96 well plate for cell culture for 24 hours at 37° C. (in the presence of 5% CO2) using 10% FBS containing IMDM medium. Then, 100 ng of luciferase reporter plasmid N4×8-luc having a STAT6 response sequence and 2 μl of the full-length cDNA prepared in above Example 1.(3) were cotransfected into the cells in a well using FuGENE 6 (purchased from Roche) according to the manufacturer's protocol. The luciferase reporter plasmid N4×8-luc having the STAT6 response sequence was constructed as follows. […] 157, 2058-2065 (1996)], oligonucleotides having the following sequences were synthesized:\nThe synthesized oligonucleotides were dissolved in sterile water to be 1μg/μl, respectively, mixed in 10 μl lots, and adjusted the volume to 32 μl with sterile water. The solution was heated for 5 min at 90° C., and gradually cooled down to room temperature to prepare a double-stranded oligonucleotide solution. The solution was reacted with T4 polynucleotide kinase (Takara Shuzo) according to the attached manual, then the reaction product was purified in a usual manner. Separately, SV40 promoter region of pGL3-Promoter vector (Promega) was replaced by the HSV thymidine kinase promoter sequence (from −50 to +10) with Hind III site and BglII site to construct a vector tk-luc. The aforesaid double-stranded oligonucleotide fragments were inserted into the XhoI site of this tk-luc vector using T4 DNA ligase (GIBCO/BRL). The obtained clones were sequenced according to a usual method, and clones in which plural oligonucleotide fragments were inserted were selected. […] The four-interlinked DNA fragments were excised from the N4×4-luc with a XhoI and a BglII site and purified to be inserted into a BamHI and a XhoI site of pBluescript II KS+ (Stratagene). The four-interlinked DNA fragments were excised from this plasmid with KpnI and SpeI and inserted into a KpnI and a NheI site of N4×4-luc plasmid to finally obtain N4×8-luc."}
{"molecule": "B1", "values": [{"measurement": "Activity = (luciferase activity of the gene of each SEQ ID NO:)/(luciferase activity of pME18S-FL3)", "value": 14.7}]}
